Experimental data reported in the supplement of paper PMC10065799, “High-throughput profiling of sequence recognition by tyrosine kinases and SH2 domains using bacterial peptide display” (eLife, 2023).

Target: Fes (UniProt P07332)
Assay: phosphorylation enrichment, bacterial display (enrichment ratio); higher = better substrate or ligand; peptides without Tyr show the background
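Further: 11-residue human phosphosite peptides and single-mutation variants displayed on the E. coli surface, counted by deep sequencing, each peptide's frequency after selection divided by its frequency in the unselected input library; frequency after pTyr selection over input frequency; kinase dosed for 20-30% of maximal phosphorylation in three min.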

Chain of Fes (P07332 whole entry, looked up): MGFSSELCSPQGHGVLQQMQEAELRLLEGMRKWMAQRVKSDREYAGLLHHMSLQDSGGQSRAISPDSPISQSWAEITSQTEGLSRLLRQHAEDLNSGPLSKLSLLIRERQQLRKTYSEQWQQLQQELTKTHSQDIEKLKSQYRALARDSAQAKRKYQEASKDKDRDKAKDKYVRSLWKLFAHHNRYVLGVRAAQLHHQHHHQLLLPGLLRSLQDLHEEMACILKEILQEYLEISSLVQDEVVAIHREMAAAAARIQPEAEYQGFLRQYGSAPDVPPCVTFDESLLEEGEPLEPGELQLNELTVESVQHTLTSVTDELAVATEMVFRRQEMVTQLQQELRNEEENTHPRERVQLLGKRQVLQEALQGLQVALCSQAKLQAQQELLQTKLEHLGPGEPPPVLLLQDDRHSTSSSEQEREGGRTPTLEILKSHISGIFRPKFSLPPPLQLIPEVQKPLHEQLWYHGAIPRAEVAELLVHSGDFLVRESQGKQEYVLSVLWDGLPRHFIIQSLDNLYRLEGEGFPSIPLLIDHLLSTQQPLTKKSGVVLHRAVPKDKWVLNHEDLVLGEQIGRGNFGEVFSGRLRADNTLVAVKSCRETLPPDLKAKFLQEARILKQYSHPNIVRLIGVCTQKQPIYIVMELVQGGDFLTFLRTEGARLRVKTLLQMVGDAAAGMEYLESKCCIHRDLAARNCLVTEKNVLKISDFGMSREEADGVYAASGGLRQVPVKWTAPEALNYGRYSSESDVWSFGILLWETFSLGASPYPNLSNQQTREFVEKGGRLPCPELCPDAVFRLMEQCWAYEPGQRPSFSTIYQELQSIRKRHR

Point of comparison: FTRNYYVQAVL [CYBA_Y88_R90Q], phosphorylation enrichment 0.981. Against it:
- KANEFYPVVII [ADAMTS18_Y765_L769I_YF] — higher, 1.16
- DIMDLYNQPEP [IL36A_Y96] — higher, 1.21
- YNNYGYGNDGF [HNRNPH3_Y161] — lower, 0.924
- AVEDQYFCVDC [FHL1_Y207_YF] — higher, 1.64
- EGNEQYEGFCV [GRIA3_Y451_R450Q_YF] — higher, 1.41
- DHAGTYGLGDR [MAPT_Y18] — lower, 0.576
- ATPKGYEPDAS [OTC_Y223] — lower, 0.843
- NRVEIYDKTVE [CYFIP1_Y108_E109D] — lower, 0.938
- AGNPAYRSFSN [IL4R_Y497] — lower, 0.575
- ENEGTYVCIAA [ADAMTSL3_Y1365_T1370A] — higher, 1.36
- QYPDVYAREEV [CRX_Y67] — higher, 4.98
- SLVVPYEPPEV [TP53_Y220_V216L] — higher, 1.29
- PLKFLYPNIDR [STAT1_Y668_K673R_YF] — higher, 1.24
- LNPDGYEKAFE [CPXM2_Y427_YF] — higher, 1.49
- SAPPSHEETVA [LITAF_Y23_Y23H] — lower, 0.597
- TESALYGCTIL [MAP3K21_Y724_V728I] — higher, 1.62
- GHLFACDWISI [BEST1_Y227_Y227C_YF] — higher, 1.01
- QIGRKYKKVRF [F8_Y442_R437Q] — higher, 1.04
- RREWFYEVIIV [BACE1_Y260_YF] — higher, 4.8
- TLKDVYDDGKY [RPS6KA3_Y483] — higher, 1.12
- PLQDVYKIGGI [EEF1A2_Y254] — the same, 0.981
- PQEVMYAQLDH [KIR3DL2_Y398_T397M] — higher, 1.52
- SVQVDYMKTIL [GLYATL2_Y127] — lower, 0.776
- RQQEVYLLYKQ [RARRES1_Y159_D158V] — higher, 1.98
- KERNQYGEVMV [MMP21_Y347] — lower, 0.734
- DVLVEYQEEGR [GNS_Y416_G418E] — higher, 1.21
- DTKPAYQNLRQ [BOD1_Y82] — lower, 0.541
- SGETEYNPTEA [NBEAL2_Y2748] — higher, 1.55
- RRSQSYNPTSG [PLEKHA2_Y185_I186N] — lower, 0.972
- FISVGYVDDTL [HLA-B_Y51_Q56L] — higher, 1.21
- EQSGSYIWVLA [DLG1_Y895_P899L] — higher, 1.32
- DDKQPYEKKAA [HMGB1_Y144] — lower, 0.947

Test system: AncSZ
Assay: as above

Point of comparison: SGETEYNPTEA [NBEAL2_Y2748], phosphorylation enrichment 1.47. Against it:
- KANEFYPVVII [ADAMTS18_Y765_L769I_YF] — lower, 1.03
- DIMDLYNQPEP [IL36A_Y96] — higher, 1.5
- YNNYGYGNDGF [HNRNPH3_Y161] — lower, 0.789
- AVEDQYFCVDC [FHL1_Y207_YF] — higher, 2.15
- EGNEQYEGFCV [GRIA3_Y451_R450Q_YF] — lower, 1.29
- DHAGTYGLGDR [MAPT_Y18] — lower, 0.429
- ATPKGYEPDAS [OTC_Y223] — lower, 0.738
- NRVEIYDKTVE [CYFIP1_Y108_E109D] — lower, 0.905
- FTRNYYVQAVL [CYBA_Y88_R90Q] — lower, 1.01
- AGNPAYRSFSN [IL4R_Y497] — lower, 0.52
- ENEGTYVCIAA [ADAMTSL3_Y1365_T1370A] — lower, 1.34
- QYPDVYAREEV [CRX_Y67] — higher, 3.78
- SLVVPYEPPEV [TP53_Y220_V216L] — lower, 1.28
- PLKFLYPNIDR [STAT1_Y668_K673R_YF] — lower, 1.31
- LNPDGYEKAFE [CPXM2_Y427_YF] — lower, 1.15
- SAPPSHEETVA [LITAF_Y23_Y23H] — lower, 0.453
- TESALYGCTIL [MAP3K21_Y724_V728I] — lower, 1.17
- GHLFACDWISI [BEST1_Y227_Y227C_YF] — lower, 0.937
- QIGRKYKKVRF [F8_Y442_R437Q] — lower, 0.84
- RREWFYEVIIV [BACE1_Y260_YF] — higher, 1.53
- TLKDVYDDGKY [RPS6KA3_Y483] — lower, 1.02
- PLQDVYKIGGI [EEF1A2_Y254] — lower, 1.01
- PQEVMYAQLDH [KIR3DL2_Y398_T397M] — higher, 1.62
- SVQVDYMKTIL [GLYATL2_Y127] — lower, 0.908
- RQQEVYLLYKQ [RARRES1_Y159_D158V] — higher, 1.5
- KERNQYGEVMV [MMP21_Y347] — lower, 0.587
- DVLVEYQEEGR [GNS_Y416_G418E] — lower, 1.32
- DTKPAYQNLRQ [BOD1_Y82] — lower, 0.462
- RRSQSYNPTSG [PLEKHA2_Y185_I186N] — lower, 0.612
- FISVGYVDDTL [HLA-B_Y51_Q56L] — lower, 1.12
- EQSGSYIWVLA [DLG1_Y895_P899L] — lower, 1.27
- DDKQPYEKKAA [HMGB1_Y144] — lower, 0.988
